The values below come from patent publication US20190367957A1.

For assay [1], the target named is T1, cytochrome P-450aluC09 (P450 AluC09) from Amycolatopsis lurida NRRL 2430 (Amycolatopsis lurida NRRL 2430).
T1 sequence: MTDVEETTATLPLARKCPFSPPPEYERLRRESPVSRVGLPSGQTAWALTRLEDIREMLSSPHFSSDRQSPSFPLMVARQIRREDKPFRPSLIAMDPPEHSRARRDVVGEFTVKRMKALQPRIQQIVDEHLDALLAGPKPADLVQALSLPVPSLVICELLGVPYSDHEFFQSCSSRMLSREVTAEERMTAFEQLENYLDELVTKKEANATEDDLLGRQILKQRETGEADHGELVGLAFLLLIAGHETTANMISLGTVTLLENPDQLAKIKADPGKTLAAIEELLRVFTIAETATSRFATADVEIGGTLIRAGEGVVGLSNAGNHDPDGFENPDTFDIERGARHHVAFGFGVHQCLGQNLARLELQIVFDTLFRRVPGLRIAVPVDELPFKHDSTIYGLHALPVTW
As to the kind of experiment: cell-based or functional assay.

Assay [2] has the same target. As to the kind of experiment: cell-based or functional assay. The source holds these as a separate data set.

Like-named read-outs stand apart in the source and are kept apart here.

B1: ferredoxin Fd1 from Streptomyces griseus 11796 (protein)
chain: TMRVSADRTVCVGAGLCALTAPGVFDQDDDGIVTVLTAEPAADDDRRTAREAGHLCPSGAVRVVEDTE
For B1, in assay [1], the % yield of parent-derived products, 4'-HO-diclofenac 310 m/z (whole cell biocatalysis) came out at 11.5%; the % yield of parent-derived products, 5-HO-diclofenac 310 m/z (whole cell biocatalysis) came out at 4.2%; the % yield of parent-derived products, HO-bosentan 568 m/z (whole cell biocatalysis) was 6.3%.

B2: ferredoxin CamB from Pseudomonas putida ATCC 17453 (protein)
chain: SKVVYVSHDGTRRELDVADGVSLMQAAVSNGIYDIVGDCGGSASCATCHVYVNEAFTDKVPAANEREIGMLECVTAELKPNSRLCCQIIMTPELDGIVVDVPDRQW
On to B2, for which the % yield of parent-derived products, HO-bosentan 568 m/z (whole cell biocatalysis) in assay [2] came out at 21.2%.

B3: ferredoxin AluF03 from Amycolatopsis lurida NRRL 2430 (protein)
chain: MKIIADTGKCVGAGQCVLTDPDLFDQSEDDGTVLVLNAEPEGEEAEENARTAVHICPGQALSLA
Regarding B3, the % yield of parent-derived products, HO-bosentan 568 m/z (whole cell biocatalysis) in assay [2] worked out at 27.4%. Also, in assay [1], the % yield of parent-derived products, 4'-HO-diclofenac 310 m/z (whole cell biocatalysis) turned out to be 60.3%; the % yield of parent-derived products, 5-HO-diclofenac 310 m/z (whole cell biocatalysis) was 23.8%; the % yield of parent-derived products, HO-bosentan 568 m/z (whole cell biocatalysis) was 52.6%.
